The test concerns the target recombinant human IL-1β (human) (UniProt P01584). The experiment in a line: cell-based or functional assay.
Sequence of UniProt P01584 (P01584 117-269 limits assumed): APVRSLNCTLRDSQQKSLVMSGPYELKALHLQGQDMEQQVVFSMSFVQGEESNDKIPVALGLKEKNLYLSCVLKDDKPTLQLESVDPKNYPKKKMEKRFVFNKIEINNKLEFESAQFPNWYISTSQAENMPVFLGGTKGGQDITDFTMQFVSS
For “hIL-1RAcp.hIL-1R1.TG.hFc.ARA.CTP.TG.hFc (Fc fusion)”, the IC50 pM (HEK293/NFκB-luciferase bioassay, IL-1β at 4 pM) came out at 100 pM.

Consider “hIL-1RAcp.hIL-1R1.myc.myc.His6 (receptor)”, for which the IC50 pM (HEK293/NFκB-luciferase bioassay, IL-1β at 4 pM) was 3400 pM.

Turning to “hIL-1RI.TG.hFc.ARA.CTP.TG.hFc.ARA.hIL-1RAcP (Fc fusion)”, the IC50 pM (HEK293/NFκB-luciferase bioassay, IL-1β at 4 pM) turned out to be 23 pM.

Values taken from patent US20070087411A1.
